These results are taken from the supplement of paper PMC10567573.

To fix the notation:
B1: SNAP91 (parent)
chain: FSTDAFSSPPQGASPVPESSLTAD
B2: RHOBTB3 (parent)
chain: GGADIIVIKYNVNDKFSFHEVKDN
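Further: lentivirally expressed fusions sorted by FACS into six bins by GFP to DsRed ratio, PSI derived from sequencing read proportions per bin multiplied by bin number.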

Variants of B1 are the subject of the first data set. Description: protein stability index of a GFP-peptide fusion (GPS, HEK-293T) (PSI 1-6); higher = more stable. The note with it: c terminus: a fixed tail appended.
Turning to FQTDAFSSPPQGASPVPESSLTAD, the protein stability index is 2.58.
On the same count and under the same terms, the figure for FSTDAFFSPPQGASPVPESSLTAD is 1.99.
Same read-out and setting: the value for FSTDAFESPPQGASPVPESSLTAD was 5.35; that for FSTDAFCSPPQGASPVPESSLTAD was 2.18.
FSTDAFGSPPQGASPVPESSLTAD: the protein stability index is 3.89.
The same measure, in the same setting: the value for FSTDAFASPPQGASPVPESSLTAD was 2.98; that for FSTDAFHSPPQGASPVPESSLTAD was 2.51.
The same measure, in the same setting: the value for FSTDAFKSPPQGASPVPESSLTAD was 2.96; that for FSTDAFDSPPQGASPVPESSLTAD was 5.47.
Same read-out and setting: the figure for FSTDAFISPPQGASPVPESSLTAD is 2.66.
Take FSTTAFSSPPQGASPVPESSLTAD: the protein stability index is 2.21.
On the same count and under the same terms, the figure for FSTVAFSSPPQGASPVPESSLTAD is 3.28; for FSTHAFSSPPQGASPVPESSLTAD it is 3.44; for FSTKAFSSPPQGASPVPESSLTAD it is 2.94.
Still for that read-out and setting: the value for FSTCAFSSPPQGASPVPESSLTAD was 2.76.
On to FSTWAFSSPPQGASPVPESSLTAD, for which the protein stability index stood at 1.67.
With FSTLAFSSPPQGASPVPESSLTAD, the protein stability index was found to be 2.63.
For FSTQAFSSPPQGASPVPESSLTAD, the protein stability index came out at 3.28.
For the variant FSTSAFSSPPQGASPVPESSLTAD, the protein stability index amounted to 2.82.
Same read-out and setting: the value for FSTAAFSSPPQGASPVPESSLTAD was 3.25; that for FSTYAFSSPPQGASPVPESSLTAD was 3.02.
Consider FSTFAFSSPPQGASPVPESSLTAD, for which the protein stability index was 3.06.
Same read-out and setting: the figure for FSTEAFSSPPQGASPVPESSLTAD is 4.2; for FSTNAFSSPPQGASPVPESSLTAD it is 2.66; for FSTGAFSSPPQGASPVPESSLTAD it is 2.71.
Turning to FSTPAFSSPPQGASPVPESSLTAD, the protein stability index worked out at 4.29.
With FSTIAFSSPPQGASPVPESSLTAD, the protein stability index came to 3.45.
With FSTMAFSSPPQGASPVPESSLTAD, the protein stability index amounted to 2.92.
The same measure, in the same setting: the value for FSTRAFSSPPQGASPVPESSLTAD was 2.37.

The next data set covers variants of B2. Described as above. The note with it: c terminus: a fixed tail appended.
For GGDDIIVIKYNVNDKFSFHEVKDN, the protein stability index is 2.85.
For the variant GGQDIIVIKYNVNDKFSFHEVKDN, the protein stability index turned out to be 2.73.
Turning to GGADIIVIDYNVNDKFSFHEVKDN, the protein stability index stood at 1.66.
As to GGADIQVIKYNVNDKFSFHEVKDN, the protein stability index was determined as 3.98.
On the same count and under the same terms, the figure for GGADIRVIKYNVNDKFSFHEVKDN is 3.1; for GGADIGVIKYNVNDKFSFHEVKDN it is 4.03.
GGADGIVIKYNVNDKFSFHEVKDN: the protein stability index was 2.82.
Take GGADEIVIKYNVNDKFSFHEVKDN: the protein stability index worked out at 3.59.
On the same count and under the same terms, the value for GGADMIVIKYNVNDKFSFHEVKDN was 2.68; that for GGADCIVIKYNVNDKFSFHEVKDN was 1.74; that for GGADLIVIKYNVNDKFSFHEVKDN was 3.18.
With GGADIIVIKYMVNDKFSFHEVKDN, the protein stability index stood at 3.72.
The same measure, in the same setting: the figure for GGADIIVIKYVVNDKFSFHEVKDN is 3.99; for GGADIIVIKYHVNDKFSFHEVKDN it is 3.1.
The same measure, in the same setting: the figure for GGADIIVIKYTVNDKFSFHEVKDN is 2.43; for GGADIIVIKYNVNDKFSFHEVSDN it is 2.52; for GGADIIVIKYNVNDKFSFHEVQDN it is 2.01.
Same read-out and setting: the figure for GGADIIVIKYNVNDKFSFHEVYDN is 3.11.
In the case of GGADIIVIKYNVNDKFSFHEVMDN, the protein stability index was determined as 2.35.
Same read-out and setting: the value for GGACIIVIKYNVNDKFSFHEVKDN was 2.96.
The same measure, in the same setting: the figure for GGAHIIVIKYNVNDKFSFHEVKDN is 2.21; for GGADIIVIKYNVNDKFSFHAVKDN it is 1.55; for GGADIIVIKYNVNDKFSFHMVKDN it is 2.91.
In the case of GGADIIVIKYNVNDKFSFHLVKDN, the protein stability index came out at 2.02.
Still for that read-out and setting: the value for GGADIIVIKYNVNDKFSFHNVKDN was 3.38; that for GGADIIVIKYNVNDKFSFHIVKDN was 2.61.
As for GGADIIVIKYNVNDKLSFHEVKDN, the protein stability index was found to be 1.63.
Regarding GGADIIVIKYNVNDKTSFHEVKDN, the protein stability index was determined as 2.33.
On the same count and under the same terms, the value for GGADIIVIKYNVNDKNSFHEVKDN was 1.84.
Same read-out and setting: the value for GGADIIVIKSNVNDKFSFHEVKDN was 1.88; that for GGADIIVIKVNVNDKFSFHEVKDN was 3.23; that for GGADIIVIKANVNDKFSFHEVKDN was 1.27.
On to GGADIIVIKLNVNDKFSFHEVKDN, for which the protein stability index turned out to be 3.82.
For GGADIIVVKYNVNDKFSFHEVKDN, the protein stability index is 1.81.
GGADIIVWKYNVNDKFSFHEVKDN: the protein stability index is 2.04.
For the variant GGADIIVRKYNVNDKFSFHEVKDN, the protein stability index worked out at 3.17.
Same read-out and setting: the figure for GGADIIVIKYNVNDKFSFKEVKDN is 2.44.
Take GGADIIVIKYNVNDKFSFFEVKDN: the protein stability index was 3.33.
Same read-out and setting: the figure for GGADIITIKYNVNDKFSFHEVKDN is 1.6; for GGADIIVIKYNVNDKFSFHEVKDR it is 1.86; for GGADIIVIKYNVNDKFSFHEVKDC it is 2.34.
As to GGADIIVIKYNVNDKFSSHEVKDN, the protein stability index amounted to 1.86.
The same measure, in the same setting: the figure for GGADIIVIKYNVNDKFSWHEVKDN is 2.08.
On the same count and under the same terms, the value for GGADIIVIKYNVNDKFSHHEVKDN was 1.76; that for GGADIIVIKYNVNDPFSFHEVKDN was 2.59; that for GGADIIVIKYNVNDVFSFHEVKDN was 3.95.
The same measure, in the same setting: the value for GGADIIVIKYNVNDCFSFHEVKDN was 4.37.
Regarding GGADIIVIKYNVNDKFRFHEVKDN, the protein stability index is 2.35.
For the variant GGADIIVIKYNVNDKFIFHEVKDN, the protein stability index amounted to 2.65.
On the same count and under the same terms, the value for GGADIIVIKYNVNDKFAFHEVKDN was 3.54; that for GGADIIVIKYNVNDKFGFHEVKDN was 2.54.
For the variant DGADIIVIKYNVNDKFSFHEVKDN, the protein stability index was 2.67.
For YGADIIVIKYNVNDKFSFHEVKDN, the protein stability index was 2.04.
As for FGADIIVIKYNVNDKFSFHEVKDN, the protein stability index was 2.69.
Still for that read-out and setting: the value for KGADIIVIKYNVNDKFSFHEVKDN was 2.99.
Turning to GAADIIVIKYNVNDKFSFHEVKDN, the protein stability index worked out at 1.69.
GTADIIVIKYNVNDKFSFHEVKDN: the protein stability index was found to be 2.38.
On the same count and under the same terms, the value for GGADIIVIKYNVNEKFSFHEVKDN was 2.8; that for GGADIIVIKYNVNRKFSFHEVKDN was 2.36; that for GGADIIVIKYNVNDKFSFHEVKIN was 2.36.
The same measure, in the same setting: the figure for GGADIIVIKYNVNDKFSFHEVKWN is 3.21.
GGADIIVIKYNVNDKFSFHENKDN: the protein stability index was determined as 1.66.
With GGADIIVIKYNVNDKFSFHEKKDN, the protein stability index was 2.59.
Same read-out and setting: the value for GGADIIVIKYNSNDKFSFHEVKDN was 1.9.
For GGADIIVIKYNINDKFSFHEVKDN, the protein stability index came to 3.31.
